# Source: patent US20230416365A1 (Hoffmann-La Roche, published 2023)
# T1: human CD19 on Nalm6 B cells (human, UniProt P15391 20-556)
# T1 sequence: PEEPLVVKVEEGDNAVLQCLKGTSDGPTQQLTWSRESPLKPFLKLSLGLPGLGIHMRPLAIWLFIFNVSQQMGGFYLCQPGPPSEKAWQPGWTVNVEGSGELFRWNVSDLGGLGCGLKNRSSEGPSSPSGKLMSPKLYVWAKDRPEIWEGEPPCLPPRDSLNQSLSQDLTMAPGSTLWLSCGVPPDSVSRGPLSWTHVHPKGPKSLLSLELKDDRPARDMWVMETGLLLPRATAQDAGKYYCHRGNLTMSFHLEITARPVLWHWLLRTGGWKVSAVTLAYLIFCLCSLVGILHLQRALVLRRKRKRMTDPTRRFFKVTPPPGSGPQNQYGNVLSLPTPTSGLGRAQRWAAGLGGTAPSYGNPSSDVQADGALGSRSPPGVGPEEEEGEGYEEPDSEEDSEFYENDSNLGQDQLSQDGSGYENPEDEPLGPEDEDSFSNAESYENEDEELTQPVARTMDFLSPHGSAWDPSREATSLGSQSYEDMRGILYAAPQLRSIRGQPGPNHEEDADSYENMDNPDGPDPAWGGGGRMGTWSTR
# Legend:
# [1] = molecular target: T2, biotinylated huCD28-Fc (dimeric CD28-Fc construct with a monovalent biotinylated avi-tag) (human, UniProt P10747 19-152, biotinylated at the C-terminal avi tag); assay: SPR, ProteOn XPR36, huCD28-Fc on NLC chip, bispecific as analyte
# T2 construct: not shown: hum IgG1 Fc fragment with hole and PG-LALA mutations; hum IgG1 Fc fragment with knob and PG-LALA mutations
# [2] = molecular target: T3, human CD28 on CHO cells (parental cell line CHO-k1 ATCC #CCL-61, modified to stably overexpress human CD28) (human, UniProt P10747 19-220); assay: binding to CHO cells expressing human CD28 (by the table's title)
# T3 construct: also called hu CD28; CHO-hCD28
# [3] = molecular target: human FAP on 3T3-huFAP cells (clone 19) (human, UniProt Q12884 1-760); assay: flow cytometry on 3T3-huFAP cells, FAP-CD28 1+1 constructs, MFI (PE)
# [4] = molecular target: T1, human CD19 on Nalm6 B cells; assay: flow cytometry on Nalm6 B cells
# [5] = molecular target: T3, human CD28 on CHO cells (parental cell …); assay: flow cytometry on CHOk1-CD28 cells
Kd [1] [nM],koff [1] [s⁻¹],kon [1] [M⁻¹ s⁻¹],Kd [2] [nM],binding result [3],EC50 [4] [nM],EC50 [5] [nM],Binder
1.7,0.000396,238000,1.7,binds,,,"FAP (4B9) - CD28 (CD28(SA)_Variant 25) 1+1 (bispecific antibody, human IgG1, kappa, L234A L235A, huIgG1 PG-LALA CrossFab 1+1; also called P1AE3139) heavy 1: EIVLTQSPGTLSLSPGERATLSCRASQSVTSSYLAWYQQKPGQAPRLLINVGSRRATGIPDRFSGSGSGTDFTLTISRLEPEDFAVYYCQQGIMLPPTFGQGTKVEIKSSASTKGPSVFPLAPSSKSTSGGTAALGCLVKDYFPEPVTVSWNSGALTSGVHTFPAVLQSSGLYSLSSVVTVPSSSLGTQTYICNVNHKPSNTKVDKKVEPKSCDKTHTCPPCPAPEAAGGPSVFLFPPKPKDTLMISRTPEVTCVVVDVSHEDPEVKFNWYVDGVEVHNAKTKPREEQYNSTYRVVSVLTVLHQDWLNGKEYKCKVSNKALGAPIEKTISKAKGQPREPQVCTLPPSRDELTKNQVSLSCAVKGFYPSDIAVEWESNGQPENNYKTTPPVLDSDGSFFLVSKLTVDKSRWQQGNVFSCSVMHEALHNHYTQKSLSLSP light 1: EVQLLESGGGLVQPGGSLRLSCAASGFTFSSYAMSWVRQAPGKGLEWVSAIIGSGASTYYADSVKGRFTISRDNSKNTLYLQMNSLRAEDTAVYYCAKGWFGGFNYWGQGTLVTVSSASVAAPSVFIFPPSDEQLKSGTASVVCLLNNFYPREAKVQWKVDNALQSGNSQESVTEQDSKDSTYSLSSTLTLSKADYEKHKVYACEVTHQGLSSPVTKSFNRGEC heavy 2: not shown light 2: not shown"
1.1,0.000307,272000,1.1,binds,,,"FAP (4B9) - CD28 (CD28(SA)_Variant 29) 1+1 (bispecific antibody, human IgG1, kappa, L234A L235A, huIgG1 PG-LALA CrossFab 1+1; also called P1AE3141) heavy 1: EIVLTQSPGTLSLSPGERATLSCRASQSVTSSYLAWYQQKPGQAPRLLINVGSRRATGIPDRFSGSGSGTDFTLTISRLEPEDFAVYYCQQGIMLPPTFGQGTKVEIKSSASTKGPSVFPLAPSSKSTSGGTAALGCLVKDYFPEPVTVSWNSGALTSGVHTFPAVLQSSGLYSLSSVVTVPSSSLGTQTYICNVNHKPSNTKVDKKVEPKSCDKTHTCPPCPAPEAAGGPSVFLFPPKPKDTLMISRTPEVTCVVVDVSHEDPEVKFNWYVDGVEVHNAKTKPREEQYNSTYRVVSVLTVLHQDWLNGKEYKCKVSNKALGAPIEKTISKAKGQPREPQVCTLPPSRDELTKNQVSLSCAVKGFYPSDIAVEWESNGQPENNYKTTPPVLDSDGSFFLVSKLTVDKSRWQQGNVFSCSVMHEALHNHYTQKSLSLSP light 1: EVQLLESGGGLVQPGGSLRLSCAASGFTFSSYAMSWVRQAPGKGLEWVSAIIGSGASTYYADSVKGRFTISRDNSKNTLYLQMNSLRAEDTAVYYCAKGWFGGFNYWGQGTLVTVSSASVAAPSVFIFPPSDEQLKSGTASVVCLLNNFYPREAKVQWKVDNALQSGNSQESVTEQDSKDSTYSLSSTLTLSKADYEKHKVYACEVTHQGLSSPVTKSFNRGEC heavy 2: not shown light 2: not shown"
,,,,,0.232,232,"CD19 (8B8-2B11)-CD28 (SA_v8) 1+1 (Molecule 18C) (bispecific antibody, human IgG1, kappa, L234A L235A, huIgG1 PG-LALA CrossFab; also called P1AF0175; CD19-CD28 v8) heavy 1: not shown light 1: not shown heavy 2: DIVMTQTPLSLSVTPGQPASISCKSSQSLETSTGTTYLNWYLQKPGQSPQLLIYRVSKRFSGVPDRFSGSGSGTDFTLKISRVEAEDVGVYYCLQLLEDPYTFGQGTKLEIKSSASTKGPSVFPLAPSSKSTSGGTAALGCLVKDYFPEPVTVSWNSGALTSGVHTFPAVLQSSGLYSLSSVVTVPSSSLGTQTYICNVNHKPSNTKVDKKVEPKSCDKTHTCPPCPAPEAAGGPSVFLFPPKPKDTLMISRTPEVTCVVVDVSHEDPEVKFNWYVDGVEVHNAKTKPREEQYNSTYRVVSVLTVLHQDWLNGKEYKCKVSNKALGAPIEKTISKAKGQPREPQVCTLPPSRDELTKNQVSLSCAVKGFYPSDIAVEWESNGQPENNYKTTPPVLDSDGSFFLVSKLTVDKSRWQQGNVFSCSVMHEALHNHYTQKSLSLSP light 2: QVQLVQSGAEVKKPGASVKVSCKASGYTFTDYIMHWVRQAPGQGLEWMGYINPYNDGSKYTEKFQGRVTMTSDTSISTAYMELSRLRSDDTAVYYCARGTYYYGPQLFDYWGQGTTVTVSSASVAAPSVFIFPPSDEQLKSGTASVVCLLNNFYPREAKVQWKVDNALQSGNSQESVTEQDSKDSTYSLSSTLTLSKADYEKHKVYACEVTHQGLSSPVTKSFNRGEC"
,,,,,0.363,150,"CD19 (8B8-2B11)-CD28 (SA_v11) 1+1 (Molecule D of Example 18; 18D) (bispecific antibody, human IgG1, kappa, L234A L235A, huIgG1 PG-LALA CrossFab; also called P1AF0377; CD19-CD28 v11) heavy 1: not shown light 1: not shown heavy 2: DIVMTQTPLSLSVTPGQPASISCKSSQSLETSTGTTYLNWYLQKPGQSPQLLIYRVSKRFSGVPDRFSGSGSGTDFTLKISRVEAEDVGVYYCLQLLEDPYTFGQGTKLEIKSSASTKGPSVFPLAPSSKSTSGGTAALGCLVKDYFPEPVTVSWNSGALTSGVHTFPAVLQSSGLYSLSSVVTVPSSSLGTQTYICNVNHKPSNTKVDKKVEPKSCDKTHTCPPCPAPEAAGGPSVFLFPPKPKDTLMISRTPEVTCVVVDVSHEDPEVKFNWYVDGVEVHNAKTKPREEQYNSTYRVVSVLTVLHQDWLNGKEYKCKVSNKALGAPIEKTISKAKGQPREPQVCTLPPSRDELTKNQVSLSCAVKGFYPSDIAVEWESNGQPENNYKTTPPVLDSDGSFFLVSKLTVDKSRWQQGNVFSCSVMHEALHNHYTQKSLSLSP light 2: QVQLVQSGAEVKKPGASVKVSCKASGYTFTDYIMHWVRQAPGQGLEWMGYINPYNDGSKYTEKFQGRVTMTSDTSISTAYMELSRLRSDDTAVYYCARGTYYYGPQLFDYWGQGTTVTVSSASVAAPSVFIFPPSDEQLKSGTASVVCLLNNFYPREAKVQWKVDNALQSGNSQESVTEQDSKDSTYSLSSTLTLSKADYEKHKVYACEVTHQGLSSPVTKSFNRGEC"
,,,,,0.368,10.8,"CD19 (8B8-2B11)-CD28 (SA_v27) 1+1 (Molecule E of Example 18; 18E) (bispecific antibody, human IgG1, kappa, L234A L235A, huIgG1 PG-LALA CrossFab; also called P1AF0378; CD19-CD28 v27) heavy 1: not shown light 1: not shown heavy 2: DIVMTQTPLSLSVTPGQPASISCKSSQSLETSTGTTYLNWYLQKPGQSPQLLIYRVSKRFSGVPDRFSGSGSGTDFTLKISRVEAEDVGVYYCLQLLEDPYTFGQGTKLEIKSSASTKGPSVFPLAPSSKSTSGGTAALGCLVKDYFPEPVTVSWNSGALTSGVHTFPAVLQSSGLYSLSSVVTVPSSSLGTQTYICNVNHKPSNTKVDKKVEPKSCDKTHTCPPCPAPEAAGGPSVFLFPPKPKDTLMISRTPEVTCVVVDVSHEDPEVKFNWYVDGVEVHNAKTKPREEQYNSTYRVVSVLTVLHQDWLNGKEYKCKVSNKALGAPIEKTISKAKGQPREPQVCTLPPSRDELTKNQVSLSCAVKGFYPSDIAVEWESNGQPENNYKTTPPVLDSDGSFFLVSKLTVDKSRWQQGNVFSCSVMHEALHNHYTQKSLSLSP light 2: QVQLVQSGAEVKKPGASVKVSCKASGYTFTDYIMHWVRQAPGQGLEWMGYINPYNDGSKYTEKFQGRVTMTSDTSISTAYMELSRLRSDDTAVYYCARGTYYYGPQLFDYWGQGTTVTVSSASVAAPSVFIFPPSDEQLKSGTASVVCLLNNFYPREAKVQWKVDNALQSGNSQESVTEQDSKDSTYSLSSTLTLSKADYEKHKVYACEVTHQGLSSPVTKSFNRGEC"
,,,,,0.416,15.6,"CD19 (8B8-2B11)-CD28 (SA_v15) 1+1 (Molecule 18B) (bispecific antibody, human IgG1, kappa, L234A L235A, huIgG1 PG-LALA CrossFab; also called P1AE9040; CD19-CD28 v15) heavy 1: not shown light 1: not shown heavy 2: DIVMTQTPLSLSVTPGQPASISCKSSQSLETSTGTTYLNWYLQKPGQSPQLLIYRVSKRFSGVPDRFSGSGSGTDFTLKISRVEAEDVGVYYCLQLLEDPYTFGQGTKLEIKSSASTKGPSVFPLAPSSKSTSGGTAALGCLVKDYFPEPVTVSWNSGALTSGVHTFPAVLQSSGLYSLSSVVTVPSSSLGTQTYICNVNHKPSNTKVDKKVEPKSCDKTHTCPPCPAPEAAGGPSVFLFPPKPKDTLMISRTPEVTCVVVDVSHEDPEVKFNWYVDGVEVHNAKTKPREEQYNSTYRVVSVLTVLHQDWLNGKEYKCKVSNKALGAPIEKTISKAKGQPREPQVCTLPPSRDELTKNQVSLSCAVKGFYPSDIAVEWESNGQPENNYKTTPPVLDSDGSFFLVSKLTVDKSRWQQGNVFSCSVMHEALHNHYTQKSLSLSP light 2: QVQLVQSGAEVKKPGASVKVSCKASGYTFTDYIMHWVRQAPGQGLEWMGYINPYNDGSKYTEKFQGRVTMTSDTSISTAYMELSRLRSDDTAVYYCARGTYYYGPQLFDYWGQGTTVTVSSASVAAPSVFIFPPSDEQLKSGTASVVCLLNNFYPREAKVQWKVDNALQSGNSQESVTEQDSKDSTYSLSSTLTLSKADYEKHKVYACEVTHQGLSSPVTKSFNRGEC"
